Test results reported in the Human Domainome abundance scans (Beltran et al. 2025).
± gives the uncertainty stated by the source.

B1: Transcription intermediary factor 1-beta, residues 620 to 671; numbered along this chain, Q13263 (parent)
chain: TLDDSATICRVCQKPGDLVMCNQCEFCFHLDCHLPALQDVPGEEWSCSLCHV

Variants of: B1
Test: abundance fitness (aPCA) (normalised: wild type 0, dead -1); higher = more abundant; growth selection in yeast, the domain comes from the species named
Conditions: Homo sapiens

In order of rising abundance fitness:
1. H29P  -1.34 ± 0.34
2. H29I  -1.12 ± 0.27
3. C32V  -1.03 ± 0.17
4. H29A  -1.01 ± 0.21
5. H29L  -1.01 ± 0.15
6. F26P  -0.993 ± 0.24
7. H29M  -0.967 ± 0.19
8. C32F  -0.959 ± 0.18
9. H29Q  -0.957 ± 0.25
10. H29V  -0.952 ± 0.15
11. C32M  -0.952 ± 0.16
12. C32T  -0.937 ± 0.18
13. C32L  -0.925 ± 0.12
14. C32W  -0.923 ± 0.18
15. H29Y  -0.921 ± 0.26
16. D31W  -0.921 ± 0.32
17. H29E  -0.919 ± 0.23
18. C32I  -0.911 ± 0.2
19. H29W  -0.908 ± 0.28
20. C32Q  -0.904 ± 0.26
21. H29G  -0.899 ± 0.18
22. H29D  -0.883 ± 0.29
23. C32E  -0.871 ± 0.24
24. H29F  -0.864 ± 0.27
25. F26I  -0.812 ± 0.34
26. H29K  -0.807 ± 0.28
27. P35W  -0.799 ± 0.14
28. C32K  -0.795 ± 0.17
29. L30D  -0.755 ± 0.2
30. H29R  -0.749 ± 0.13
31. F28N  -0.724 ± 0.28
32. A36C  -0.713 ± 0.18
33. D31C  -0.709 ± 0.2
34. C32R  -0.704 ± 0.11
35. P35Q  -0.698 ± 0.2
36. C32D  -0.683 ± 0.18
37. H29C  -0.67 ± 0.2
38. C32G  -0.652 ± 0.11
39. H29T  -0.637 ± 0.17
40. P35F  -0.637 ± 0.17
41. A36Q  -0.633 ± 0.32
42. L30F  -0.609 ± 0.19
43. F28G  -0.593 ± 0.12
44. F26T  -0.563 ± 0.17
45. D31F  -0.558 ± 0.16
46. F28D  -0.554 ± 0.34
47. P35A  -0.553 ± 0.12
48. P35T  -0.552 ± 0.16
49. F28Q  -0.549 ± 0.31
50. C32A  -0.545 ± 0.14
51. C32N  -0.528 ± 0.25
52. D31K  -0.528 ± 0.2
53. P35L  -0.508 ± 0.12
54. C32S  -0.507 ± 0.13
55. H29N  -0.504 ± 0.19
56. C32H  -0.501 ± 0.22
57. D31I  -0.501 ± 0.18
58. P35R  -0.488 ± 0.11
59. L30I  -0.479 ± 0.22
60. P35V  -0.458 ± 0.088
61. C32P  -0.454 ± 0.16
62. C32Y  -0.45 ± 0.15
63. A36I  -0.449 ± 0.19
64. P35E  -0.447 ± 0.12
65. P35D  -0.447 ± 0.14
66. H33W  -0.444 ± 0.13
67. L30Q  -0.432 ± 0.27
68. P35H  -0.431 ± 0.23
69. F28K  -0.427 ± 0.23
70. F28S  -0.424 ± 0.12
71. F26W  -0.399 ± 0.13
72. A36D  -0.394 ± 0.16
73. F28L  -0.393 ± 0.11
74. A36N  -0.384 ± 0.31
75. L30G  -0.375 ± 0.12
76. F26H  -0.374 ± 0.21
77. D31M  -0.365 ± 0.17
78. F28H  -0.346 ± 0.35
79. H33P  -0.344 ± 0.14
80. F26V  -0.33 ± 0.11
81. L34W  -0.328 ± 0.11
82. F26L  -0.328 ± 0.12
83. H33I  -0.325 ± 0.23
84. D31R  -0.324 ± 0.12
85. F28E  -0.321 ± 0.14
86. F28M  -0.318 ± 0.14
87. D31S  -0.317 ± 0.11
88. L30K  -0.312 ± 0.24
89. D31T  -0.308 ± 0.12
90. L34I  -0.305 ± 0.17
91. L30M  -0.299 ± 0.16
92. H33Y  -0.294 ± 0.14
93. L30T  -0.292 ± 0.19
94. P35M  -0.291 ± 0.15
95. F28R  -0.284 ± 0.093
96. F28T  -0.278 ± 0.12
97. L30W  -0.271 ± 0.12
98. L30N  -0.264 ± 0.16
99. D31A  -0.257 ± 0.12
100. D31V  -0.254 ± 0.093
101. P35G  -0.244 ± 0.096
102. H33T  -0.235 ± 0.14
103. F28V  -0.227 ± 0.092
104. P35N  -0.222 ± 0.17
105. H33K  -0.218 ± 0.17
106. F28C  -0.211 ± 0.15
107. H33M  -0.205 ± 0.15
108. D31E  -0.202 ± 0.14
109. L30E  -0.196 ± 0.17
110. L30H  -0.194 ± 0.19
111. F26S  -0.192 ± 0.1
112. A36K  -0.183 ± 0.15
113. P35K  -0.18 ± 0.16
114. D31P  -0.175 ± 0.16
115. A36L  -0.173 ± 0.11
116. A36H  -0.168 ± 0.19
117. H33G  -0.159 ± 0.083
118. L30S  -0.145 ± 0.13
119. L30P  -0.139 ± 0.17
120. H33N  -0.139 ± 0.17
121. L30C  -0.135 ± 0.16
122. P35S  -0.128 ± 0.1
123. F26N  -0.122 ± 0.21
124. H33L  -0.117 ± 0.098
125. L30A  -0.116 ± 0.16
126. A36G  -0.116 ± 0.087
127. H33R  -0.109 ± 0.095
128. F26M  -0.108 ± 0.2
129. F28A  -0.098 ± 0.13
130. F28Y  -0.09 ± 0.17
131. L34T  -0.065 ± 0.17
132. F26R  -0.045 ± 0.097
133. D31H  -0.024 ± 0.15
134. L30R  -0.02 ± 0.098
135. F28I  -0.016 ± 0.16
136. H33A  -0.013 ± 0.1
137. D31G  -0.004 ± 0.1
138. C27Y  0.002 ± 0.16
139. H33S  0.012 ± 0.1
140. L34F  0.03 ± 0.15
141. H33V  0.033 ± 0.098
142. A36E  0.034 ± 0.13
143. L34P  0.036 ± 0.18
144. D31Q  0.04 ± 0.21
145. H33Q  0.042 ± 0.15
146. L34Q  0.05 ± 0.15
147. A36R  0.058 ± 0.11
148. L34V  0.062 ± 0.095
149. L34Y  0.062 ± 0.15
150. A36P  0.077 ± 0.15
151. F26Q  0.082 ± 0.16
152. H33D  0.086 ± 0.12
153. F28W  0.093 ± 0.11
154. L34G  0.098 ± 0.08
155. F26G  0.121 ± 0.1
156. L34K  0.13 ± 0.15
157. F26K  0.155 ± 0.13
158. L34H  0.157 ± 0.17
159. L34A  0.164 ± 0.13
160. D31N  0.175 ± 0.12
161. L34E  0.188 ± 0.13
162. H33E  0.2 ± 0.15
163. H33C  0.217 ± 0.14
164. L34C  0.274 ± 0.094
165. L34S  0.283 ± 0.093
166. L34D  0.325 ± 0.14
167. L34N  0.543 ± 0.15
